In patent US20090118184A1 (UNIVERSITY OF ROCHESTER, published 2009):

T1: factor VIIIa A1/A3C1C2 dimer, wild type (human, UniProt P00451 20-391; P00451 1709-2351)
T1 sequence 1: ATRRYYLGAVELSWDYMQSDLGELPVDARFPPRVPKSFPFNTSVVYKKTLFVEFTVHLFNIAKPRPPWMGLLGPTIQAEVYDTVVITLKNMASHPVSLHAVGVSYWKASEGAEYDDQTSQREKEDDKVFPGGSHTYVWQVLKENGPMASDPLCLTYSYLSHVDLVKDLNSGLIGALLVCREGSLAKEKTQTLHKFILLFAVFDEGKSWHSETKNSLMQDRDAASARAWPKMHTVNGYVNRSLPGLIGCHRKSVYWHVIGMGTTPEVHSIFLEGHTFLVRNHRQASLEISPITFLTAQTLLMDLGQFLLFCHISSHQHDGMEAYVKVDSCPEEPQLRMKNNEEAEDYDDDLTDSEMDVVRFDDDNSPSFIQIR
T1 sequence 2: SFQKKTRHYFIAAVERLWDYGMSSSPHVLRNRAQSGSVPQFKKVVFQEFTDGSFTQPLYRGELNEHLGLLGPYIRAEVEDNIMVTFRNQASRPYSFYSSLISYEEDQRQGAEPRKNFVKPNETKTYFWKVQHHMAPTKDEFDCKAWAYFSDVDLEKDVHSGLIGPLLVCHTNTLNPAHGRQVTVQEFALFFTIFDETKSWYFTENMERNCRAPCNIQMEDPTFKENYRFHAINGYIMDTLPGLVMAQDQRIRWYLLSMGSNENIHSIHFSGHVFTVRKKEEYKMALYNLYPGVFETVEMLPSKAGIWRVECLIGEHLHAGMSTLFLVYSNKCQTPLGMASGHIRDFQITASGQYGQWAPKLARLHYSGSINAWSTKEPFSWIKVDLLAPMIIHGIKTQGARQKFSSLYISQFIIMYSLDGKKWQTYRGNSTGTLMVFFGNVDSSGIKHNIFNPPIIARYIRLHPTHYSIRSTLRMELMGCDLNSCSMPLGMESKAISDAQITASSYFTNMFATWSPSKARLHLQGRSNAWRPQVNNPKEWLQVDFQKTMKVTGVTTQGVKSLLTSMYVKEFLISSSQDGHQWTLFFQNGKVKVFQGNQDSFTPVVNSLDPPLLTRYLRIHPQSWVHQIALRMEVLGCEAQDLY

T2: factor VIIIa A1/A3C1C2 dimer, Glu1984Ala (human, UniProt P00451 20-391; P00451 1709-2351)
T2 sequence 1: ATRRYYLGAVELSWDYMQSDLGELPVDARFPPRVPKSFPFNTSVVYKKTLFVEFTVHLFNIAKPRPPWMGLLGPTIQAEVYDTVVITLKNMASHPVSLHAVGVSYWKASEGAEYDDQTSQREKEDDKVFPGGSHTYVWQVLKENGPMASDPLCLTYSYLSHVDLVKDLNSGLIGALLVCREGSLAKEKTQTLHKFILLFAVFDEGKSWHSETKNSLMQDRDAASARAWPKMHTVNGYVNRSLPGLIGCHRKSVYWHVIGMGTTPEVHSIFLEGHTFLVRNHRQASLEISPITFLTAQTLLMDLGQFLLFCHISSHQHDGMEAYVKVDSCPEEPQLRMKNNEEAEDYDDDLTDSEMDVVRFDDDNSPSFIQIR
T2 sequence 2: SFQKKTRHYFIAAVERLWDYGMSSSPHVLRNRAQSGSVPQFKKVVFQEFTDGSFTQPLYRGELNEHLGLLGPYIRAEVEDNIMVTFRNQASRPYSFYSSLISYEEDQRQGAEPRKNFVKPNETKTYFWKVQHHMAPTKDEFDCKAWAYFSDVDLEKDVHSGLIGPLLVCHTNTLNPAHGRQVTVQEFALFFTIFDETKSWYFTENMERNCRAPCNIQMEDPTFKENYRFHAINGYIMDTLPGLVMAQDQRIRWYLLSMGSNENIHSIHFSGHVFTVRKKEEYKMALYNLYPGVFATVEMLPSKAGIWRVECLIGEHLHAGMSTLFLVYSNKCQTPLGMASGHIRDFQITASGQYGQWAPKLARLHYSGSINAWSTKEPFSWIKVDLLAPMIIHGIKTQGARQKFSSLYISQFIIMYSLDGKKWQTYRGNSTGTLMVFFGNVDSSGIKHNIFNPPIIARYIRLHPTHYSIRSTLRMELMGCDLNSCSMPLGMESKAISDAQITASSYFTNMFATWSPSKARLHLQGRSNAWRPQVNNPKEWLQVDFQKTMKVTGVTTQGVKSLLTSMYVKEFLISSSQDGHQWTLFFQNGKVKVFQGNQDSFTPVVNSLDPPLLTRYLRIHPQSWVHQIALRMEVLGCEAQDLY

T3: factor VIIIa A1/A3C1C2 dimer, Glu1984Val (human, UniProt P00451 20-391; P00451 1709-2351)
T3 sequence 1: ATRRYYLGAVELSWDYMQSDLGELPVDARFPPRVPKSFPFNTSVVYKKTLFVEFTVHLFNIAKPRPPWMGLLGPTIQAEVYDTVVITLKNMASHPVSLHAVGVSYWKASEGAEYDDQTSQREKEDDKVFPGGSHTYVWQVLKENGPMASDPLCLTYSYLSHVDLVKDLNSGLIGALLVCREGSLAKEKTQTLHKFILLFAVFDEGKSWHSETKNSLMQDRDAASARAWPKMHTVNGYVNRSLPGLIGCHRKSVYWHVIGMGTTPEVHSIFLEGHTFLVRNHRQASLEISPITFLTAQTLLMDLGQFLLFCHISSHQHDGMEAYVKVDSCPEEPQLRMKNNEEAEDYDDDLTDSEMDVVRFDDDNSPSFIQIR
T3 sequence 2: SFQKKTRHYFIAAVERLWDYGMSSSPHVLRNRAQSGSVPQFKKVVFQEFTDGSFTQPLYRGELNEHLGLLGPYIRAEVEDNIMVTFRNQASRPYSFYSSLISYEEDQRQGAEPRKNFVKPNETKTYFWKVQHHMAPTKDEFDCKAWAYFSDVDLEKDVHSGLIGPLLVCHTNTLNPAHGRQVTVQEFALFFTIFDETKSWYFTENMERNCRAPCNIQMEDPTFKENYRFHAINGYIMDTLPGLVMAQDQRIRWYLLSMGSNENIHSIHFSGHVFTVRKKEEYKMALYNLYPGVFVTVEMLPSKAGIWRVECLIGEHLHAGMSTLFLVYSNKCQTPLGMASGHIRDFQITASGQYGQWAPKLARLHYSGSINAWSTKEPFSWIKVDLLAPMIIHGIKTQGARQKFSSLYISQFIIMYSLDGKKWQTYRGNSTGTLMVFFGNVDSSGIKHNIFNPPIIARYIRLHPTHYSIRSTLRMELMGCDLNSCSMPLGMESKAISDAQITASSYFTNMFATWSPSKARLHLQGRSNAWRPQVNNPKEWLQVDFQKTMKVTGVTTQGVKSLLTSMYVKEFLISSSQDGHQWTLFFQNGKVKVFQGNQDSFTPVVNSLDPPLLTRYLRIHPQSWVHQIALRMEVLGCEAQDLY

T4: factor VIIIa A1/A3C1C2 dimer, Glu113Ala (human, UniProt P00451 20-391; P00451 1709-2351)
T4 chain 1: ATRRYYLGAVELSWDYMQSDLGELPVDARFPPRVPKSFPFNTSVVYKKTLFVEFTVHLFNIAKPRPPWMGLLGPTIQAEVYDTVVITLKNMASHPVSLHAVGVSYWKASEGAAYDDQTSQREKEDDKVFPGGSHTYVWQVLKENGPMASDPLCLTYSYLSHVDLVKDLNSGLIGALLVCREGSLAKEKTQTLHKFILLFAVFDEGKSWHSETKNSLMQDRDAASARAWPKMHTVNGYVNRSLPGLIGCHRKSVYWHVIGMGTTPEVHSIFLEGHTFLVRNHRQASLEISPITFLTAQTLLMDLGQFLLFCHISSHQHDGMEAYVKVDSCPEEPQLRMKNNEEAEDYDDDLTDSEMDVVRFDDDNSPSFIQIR
T4 chain 2: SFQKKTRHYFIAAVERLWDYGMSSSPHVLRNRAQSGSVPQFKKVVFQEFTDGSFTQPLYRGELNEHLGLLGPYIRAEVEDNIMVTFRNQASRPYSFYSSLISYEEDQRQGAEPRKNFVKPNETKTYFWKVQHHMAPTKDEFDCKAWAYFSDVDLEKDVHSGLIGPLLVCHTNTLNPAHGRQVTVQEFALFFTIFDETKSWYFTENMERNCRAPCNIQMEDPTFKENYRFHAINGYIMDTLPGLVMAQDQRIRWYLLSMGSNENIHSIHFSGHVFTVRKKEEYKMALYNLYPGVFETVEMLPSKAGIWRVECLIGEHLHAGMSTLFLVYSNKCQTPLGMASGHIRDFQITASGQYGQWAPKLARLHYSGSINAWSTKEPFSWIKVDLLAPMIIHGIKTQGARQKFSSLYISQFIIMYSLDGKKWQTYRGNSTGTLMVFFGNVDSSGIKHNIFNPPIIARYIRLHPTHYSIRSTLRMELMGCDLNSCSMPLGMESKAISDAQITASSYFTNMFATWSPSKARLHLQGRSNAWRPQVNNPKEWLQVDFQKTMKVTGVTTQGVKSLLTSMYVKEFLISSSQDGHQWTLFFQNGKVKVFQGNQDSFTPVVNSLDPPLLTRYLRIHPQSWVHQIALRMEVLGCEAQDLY


Legend:
Test in all cases: cell-based or functional assay
[1] = target: T1, factor VIIIa A1/A3C1C2 dimer, wild type
[2] = target: T1, factor VIIIa A1/A3C1C2 dimer, wild type; remark: listed apart in the source
[3] = target: T2, factor VIIIa A1/A3C1C2 dimer, Glu1984Ala
[4] = target: T3, factor VIIIa A1/A3C1C2 dimer, Glu1984Val
[5] = target: T4, factor VIIIa A1/A3C1C2 dimer, Glu113Ala
[6] = target: T2, factor VIIIa A1/A3C1C2 dimer, Glu1984Ala; remark: listed apart in the source
[7] = target: T3, factor VIIIa A1/A3C1C2 dimer, Glu1984Val; remark: listed apart in the source

Binder	Factor VIIIa Decay relative to the WT value, Factor IXa absent [1]	Factor VIIIa Decay relative to the WT value, Factor IXa present [1]	Factor VIIIa Decay, Factor IXa absent [1]	Factor VIIIa Decay, Factor IXa present [1]	Decay rate relative to wild type, Factor VIIIa (1.5 nM, factor IXa absent) [2]	Decay rate, Factor VIIIa (1.5 nM factor VIIIa, factor IXa absent) [2]	Decay rate relative to wild type, Factor VIIIa (1.5 nM, factor IXa absent) [3]	Decay rate, Factor VIIIa (1.5 nM factor VIIIa, factor IXa absent) [3]	Decay rate relative to wild type, Factor VIIIa (1.5 nM, factor IXa absent) [4]	Decay rate, Factor VIIIa (1.5 nM factor VIIIa, factor IXa absent) [4]	Decay rate relative to wild type, Factor VIIIa (1.5 nM, factor IXa absent) [5]	Decay rate, Factor VIIIa (1.5 nM factor VIIIa, factor IXa absent) [5]	factor VIIIa decay rate relative to the better single mutation of the pairing [6]	factor VIIIa decay rate relative to the better single mutation of the pairing [7]
factor VIIIa A2 subunit, Asp519Ala (other) SVAKKHPKTWVHYIAAEEEDWDYAPLVLAPDDRSYKSQYLNNGPQRIGRKYKKVRFMAYTDETFKTREAIQHESGILGPLLYGEVGDTLLIIFKNQASRPYNIYPHGITDVRPLYSRRLPKGVKHLKDFPILPGEIFKYKWTVTVEAGPTKSDPRCLTRYYSSFVNMERDLASGLIGPLLICYKESVDQRGNQIMSDKRNVILFSVFDENRSWYLTENIQRFLPNPAGVQLEDPEFQASNIMHSINGYVFDSLQLSVCLHEVAYWYILSIGAQTDFLSVFFSGYTFKHKMVYEDTLTLFPFSGETVFMSMENPGLWILGCHNSDFRNRGMTALLKVSSCDKNTGDYYEDSYEDISAYLLSKNNAIEPR	0.66 relative to WT	0.41 relative to WT	0.0556 min⁻¹	0.0063 min⁻¹	0.64 relative to wild type	0.0898 min⁻¹	0.19 relative to wild type	0.0266 min⁻¹	0.23 relative to wild type	0.0319 min⁻¹	0.53 relative to wild type	0.0748 min⁻¹	–	–
factor VIIIa A2 subunit, Glu665Ala (other) SVAKKHPKTWVHYIAAEEEDWDYAPLVLAPDDRSYKSQYLNNGPQRIGRKYKKVRFMAYTDETFKTREAIQHESGILGPLLYGEVGDTLLIIFKNQASRPYNIYPHGITDVRPLYSRRLPKGVKHLKDFPILPGEIFKYKWTVTVEDGPTKSDPRCLTRYYSSFVNMERDLASGLIGPLLICYKESVDQRGNQIMSDKRNVILFSVFDENRSWYLTENIQRFLPNPAGVQLEDPEFQASNIMHSINGYVFDSLQLSVCLHEVAYWYILSIGAQTDFLSVFFSGYTFKHKMVYADTLTLFPFSGETVFMSMENPGLWILGCHNSDFRNRGMTALLKVSSCDKNTGDYYEDSYEDISAYLLSKNNAIEPR	0.62 relative to WT	0.51 relative to WT	0.052 min⁻¹	0.0078 min⁻¹	0.6 relative to wild type	0.0834 min⁻¹	0.93 relative to wild type	0.13 min⁻¹	0.9 relative to wild type	0.127 min⁻¹	0.54 relative to wild type	0.0754 min⁻¹	~2.2 fold	~2.7 fold
factor VIIIa A2 subunit, Asp519Val (other) SVAKKHPKTWVHYIAAEEEDWDYAPLVLAPDDRSYKSQYLNNGPQRIGRKYKKVRFMAYTDETFKTREAIQHESGILGPLLYGEVGDTLLIIFKNQASRPYNIYPHGITDVRPLYSRRLPKGVKHLKDFPILPGEIFKYKWTVTVEVGPTKSDPRCLTRYYSSFVNMERDLASGLIGPLLICYKESVDQRGNQIMSDKRNVILFSVFDENRSWYLTENIQRFLPNPAGVQLEDPEFQASNIMHSINGYVFDSLQLSVCLHEVAYWYILSIGAQTDFLSVFFSGYTFKHKMVYEDTLTLFPFSGETVFMSMENPGLWILGCHNSDFRNRGMTALLKVSSCDKNTGDYYEDSYEDISAYLLSKNNAIEPR	0.77 relative to WT	0.44 relative to WT	0.0642 min⁻¹	0.0068 min⁻¹	0.6 relative to wild type	0.0836 min⁻¹	0.12 relative to wild type	0.0168 min⁻¹	0.19 relative to wild type	0.0262 min⁻¹	0.35 relative to wild type	0.0495 min⁻¹	–	–
